Assay results taken from patent US20260116996A1 (REGENTS OF THE UNIVERSITY OF MINNESOTA, published 2026).

Legend:
mouse serpinB13 (mouse) = mouse serpinB13 (mouse) (UniProt Q8CDC0); assay: flow cytometry, isotype control staining in place of B29 and anti-EpCAM; the tissue of this panel is not named
[1] = biological target: T1, recombinant human serpinB13 (human, UniProt Q9UIV8 1-391)
T1 construct: The baculovirus-made protein (GenScript) was used for panning, ELISA and the cathepsin L assay; In the Luminex assay human serpinB13 was V5-His tagged and came from 293 cell lysates; also called rhB13
T1 sequence (looked up): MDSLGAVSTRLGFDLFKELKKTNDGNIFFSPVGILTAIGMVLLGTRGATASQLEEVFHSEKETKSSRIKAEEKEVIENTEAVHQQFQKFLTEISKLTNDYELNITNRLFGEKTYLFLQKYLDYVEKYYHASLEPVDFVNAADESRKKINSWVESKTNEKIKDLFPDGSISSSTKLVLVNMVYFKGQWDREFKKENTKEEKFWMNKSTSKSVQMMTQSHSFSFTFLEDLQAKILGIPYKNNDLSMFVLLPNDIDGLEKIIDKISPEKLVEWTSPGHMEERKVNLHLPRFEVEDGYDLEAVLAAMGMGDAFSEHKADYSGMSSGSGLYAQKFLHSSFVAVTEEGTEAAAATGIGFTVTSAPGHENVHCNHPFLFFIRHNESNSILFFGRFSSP

mouse serpinB13 (mouse), sequence (Q8CDC0 whole entry): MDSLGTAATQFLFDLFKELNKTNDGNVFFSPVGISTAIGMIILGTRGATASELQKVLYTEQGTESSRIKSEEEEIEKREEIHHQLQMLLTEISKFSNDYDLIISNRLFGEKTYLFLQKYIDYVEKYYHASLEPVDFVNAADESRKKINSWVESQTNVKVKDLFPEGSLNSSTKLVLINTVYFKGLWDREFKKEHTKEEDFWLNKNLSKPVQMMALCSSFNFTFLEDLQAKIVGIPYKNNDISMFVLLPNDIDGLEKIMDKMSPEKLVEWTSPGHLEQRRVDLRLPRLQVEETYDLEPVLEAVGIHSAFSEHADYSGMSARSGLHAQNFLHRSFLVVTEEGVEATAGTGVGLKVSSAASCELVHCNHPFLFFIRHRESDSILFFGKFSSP

Substance | quadrant Q1 (SerpinB13-Alexa647 high, EpCAM low), percent of cells (mouse serpinB13 (mouse)) | substrate cleavage by CatL (fluorescence, kinetic mode) [1]
Control Ab (antibody) | 0.43 | 
cathepsin L (Cathepsin L Inhibitor Screening Kit, BioVision) |  | Inhibition of a substrate cleavage by CatL with different doses of recombinant human serpinB13 over time
